Assay: soluble on expression in E. coli; label from the status in PepcDB or PDB records

Question: Which “soluble on expression in E. coli” value does the source give for “MNPVAFIREKREGKKHRREDLEAFLLGYLRDEVPDYQVSAWLMAAFLRGLDPEETLWLTETMARSGKVLDLSGLPHPVDKHSSGGVGDKVSLVVGPILAASGCTFAKMSGRGLAHTGGTIDKLESVPGWRGEMTEAEFLERARRVGLVIAAQSPDLAPLDGKLYALRDVTATVESVPLIASSIMSKKLAAGARSIVLDVKVGRGAFMKTLEEARLLAKTMVAIGQGAGRRVRALLTSMEAPLGRAVGNAIEVREAIEALKGEGPGDLLEVALALAEEALRLEGLDPALARKALEGGAALEKFRAFLEAQGGDPRAVEDFSLLPLAEEHPLRAEREGVVREVDAYKVGLAVLALGGGRKRKGEPIDHGVGVYLLKKPGDRVERGEALALVYHRRRGLEEALGHLREAYALGEEAHPAPLVLEAI” here?
Answer: The value was “soluble”.

Question: Which “soluble on expression in E. coli” value does the source give for “EQEVSLDLILVEEYDSLIEKMSNWNFPIFELVEKMGEKSGRILSQVMYTLFQDTGLLEIFKIPTQQFMNYFRALENGYRDIPYHNRIHATDVLHAVWYLTTRPVPGLQQIHNGCGTGNETDSDGRINHGRIAYISSKSCSNPDESYGCLSSNIPALELMALYVAAAMHDYDHPGRTNAFLVATNAPQAVLYNDRSVLENHHAASAWNLYLSRPEYNFLLHLDHVEFKRFRFLVIEAILATDLKKHFDFLAEFNAKANDVNSNGIEWSNENDRLLVCQVCIKLADINGPAKVRDLHLKWTEGIVNEFYEQGDEEANLGLPISPFMDRSSPQLAKLQESFITHIVGPLCNSYDAAGLLPGQWLEAEEDNDTESGDDEDGEELDTEDEEMENNLNPKPPRRKSRRRIFCQLMHHLTENHKIWK” here?
Answer: The value was “soluble”.

Question: With “IVGGYTCAANSIPYQVSLNSGSHFCGGSLINSQWVVSAAHCYKSRIQVRLGEHNIDVLEGNEQFINAAKIITHPNFNGNTLDNDIMLIKLSSPATLNSRVATVSLPRSCAAAGTECLISGWGNTKSSGSSYPSLLQCLKAPVLSDSSCKSSYPGQITGNMICVGFLEGGKDSCQGDSGGPVVCNGQLQGIVSWGYGCAQKNKPGVYTKVCNYVNWIQQTIAAN” as the sequence, how does the “soluble on expression in E. coli” value read?
Answer: Its value is “soluble”.

Question: For “AIASPQDTCCPPDSWPALKVDYKPKGKLEDIGKGLKAYVVGNGPRAVIALNDVFGIESGHSKEICDAIADKGFTVVFPDVFRGKPLQVSDMSKLFDELPGWAKQFDYEPALRKDVVEVILPYLHDKLGFKSNDQIALAGFCWGAFMLFHLAGDTKLPGGPFACGVSFHPSVQIEGVFQRDPLQLIDRATCPQLLLPSAGEPDYMKEEGDAIKKLRAKPFGASCGVKTFPSMQHGWVNRGDRNDPQVVKEAQEALQLAVDFMMRHTKPKA”, which “soluble on expression in E. coli” value is on record?
Answer: The value was “soluble”.

Question: With “PHMQPFDSGHDDLVHDVVYDFYGRHVATCSSDQHIKVFKLDKDTSNWELSDSWRAHDSSIVAIDWASPEYGRIIASASYDKTVKLWEEDPDQEECSGRRWNKLCTLNDSKGSLYSVKFAPAHLGLKLACLGNDGILRLYDALEPSDLRSWTLTSEMKVLSIPPANHLQSDFCLSWCPSRFSPEKLAVSALEQAIIYQRGKDGKLHVAAKLPGHKSLIRSISWAPSIGRWYQLIATGCKDGRIRIFKITEKLSPLASEESLTNSNMFDNSADVDMDAQGRSDSNTEEKAELQSNLQVELLSEHDDHNGEVWSVSWNLTGTILSSAGDDGKVRLWKATYSNEFKCMSVITAQQ” as the sequence, how does the “soluble on expression in E. coli” value read?
Answer: The value was “soluble”.

Question: For “SNALANRIENVVSQERTRKKFESLVSDSPDGIVHLTTNGTILSVNPSMAGRLGADPDTLVGQQLSAVMDSEAANQRLEAGKSAVENGTATRSEDAVGGRHYHNQYIPVDSHRKSDTFQLVSRDIT”, which “soluble on expression in E. coli” value is on record?
Answer: Its value is “soluble”.

Question: Which “soluble on expression in E. coli” value does the source give for “MSLKLHKGIKEYECKECHRRFAQKVNMLKHCKRHTGIKDFMCELCGKTFSERNTMETHKLIHTVGKQWTCSVCDKKYVTEYMLQKHVQLTHDKVEAQSCQLCGTKVSTRASMSRHMRRKHPEVLAVRIDDLDHLPETTTIDASSIGIVQPELTLEQEDLAEGKHGKAAKRSHKRKQKPEEEAGAPVPEDATFSEYSEKETEFTGSVGDETNSAVQSIQQVVVTLGDPNVTTPSSSVGLTNITVTPITTAAATQFTNLQPVAVGHLTTPERQLQLDNSILTVTFDTVSGSAMLHNRQNDVQIHPQPEASNPQSVAHFINLTTLVNSITPLGSQLSDQHPLTWRAVPQTDVLPPSQPQAPPQQAAQPQVQAEQQQQQMYSYEGHHHHHH” here?
Answer: Its value is “not soluble”.

Question: Which “soluble on expression in E. coli” value does the source give for “MSLQISPETQLFIREHQTDDVRALALQARKYPNVDMPTAITQIAGRQVAAEKIPSWRDTDDIWYPKHLSLEQCSSEVTARYKATLLKGNSLTDLTGGFGIDCAFLAARFKSATYVERQQELCEIAAHNFPILNLNHINVKNEDGVSYLQAMSPVDCIFLDPARRNEHGGKTVAISDCEPDVAELEELLLNKAEQVMVKLSPMLDLSLALKELQHVQEVHIISANNECKELLLILGQASAEEISIHCVNLPTRGAQEEQHFVFTREQEQCSECNYTDTLENYLYEPNASLLKAGAFRSIASAFPVKKLHPNSHLYTSDVLVESFPGRAFHIISQCSLNKKELKESLGDLKKANITVRNFPATVAELRKRIKLSEGGDTYLFASTLNNGQKVLIRCEKAEGHHHHHH” here?
Answer: The value was “soluble”.

Question: For “AGKTLYDKLWDMHLVKQRDDGSALIYIDRHILHEVTSPQAFEGLRLAGRKPWRIDANIATPDHNVPTTRTERKGGIAAIADEVSRLQVQTLDENCDDFGITEFKMNDVRQGIVHVVGPEQGATLPGMTVVCGDSHTSTHGAFGALAHGIGTSEVEHVLATQCLVAKKMKN”, which “soluble on expression in E. coli” value is on record?
Answer: Its value is “not soluble”.

Question: Which “soluble on expression in E. coli” value does the source give for “MPSSDPTQSSGFAGLRSTSWPVLGILSFGEELSGYDLKKWASYSVRFFYWSPSFSQVYSELKKLEDLGYVTSRTVVDDEARVKPKRLYKITDAGMAVMRSWAREAPIDPPVLKHGVMLRMWLGHLTEPEQLKDALKEHISYVEGMSRQAALDARDSDVEPTWAFAHMVNKWSERYYAAESELAKQMLADIDEAVERMHGEGTPEHPGVPKPTASHSIRRSREAQKEYQAAMKAAQDADDEAERED” here?
Answer: The value was “not soluble”.

Question: For “MSLDLAADILVADAHMHTNPTRGLGAREVARRFRREGGWFAALLTLTTWSYGLAPTGVEAYRRMYEIHLRECRAAREEGLRVACFAGIHPAEVDRMIDKHRQPPEKALETALEAVEVLRRLCREGAIDGVGEVGRQHYRTSPLRVAIAEVVLEEAAAAALEEGCLLQLHLENEGPATVETVDRILRRAGATGARRGMVIFHHATLRVAKEAVARGYNATIPGVPKLLEHAAANEPPDYMVESDYLDDPARPGAVVEPWKMAQKLREIASRTPETREWVRRTNIDLVERVFQASPPEGHHHHHH”, which “soluble on expression in E. coli” value is on record?
Answer: Its value is “soluble”.

Question: For “MGSDKIHHHHHHMSSLINDIHAEDVANYLNRNREFFHVFPNLLNELSIPHPKSGHEVSLLERQVFQLREQRDSLQVEVDTLKDIAGENGALLHKVYDLSYALLAAESEQEAVNVVYDVMHDVFTVEEVTIISWEVPKSSVHGVNQLGISQAWSQSLKETLQPGKPVCGLLEDSWQKGLFHTDKAMQSVCVIPLGQQRVWGALALGATTDRFSPELGTYFLKVMGQMVTARLQRLF”, which “soluble on expression in E. coli” value is on record?
Answer: Its value is “not soluble”.

Question: With “KETCSTGLYTHSGECCKACNLGEGVAQPCGANQTVCEPCLDSVTFSDVVSATEPCKPCTECLGLQSMSAPCVEADDAVCRCAYGYYQDEETGHCEACSVCEVGSGLVFSCQDKQNTVCEECPEGTYSDEANHVDPCLPCTVCEDTERQLRECTPWADAECEHHHHHH” as the sequence, how does the “soluble on expression in E. coli” value read?
Answer: The value was “soluble”.

Question: For “MKKMNHVLQVLMLSASLVASPFTYANEEKGLEIAQERKARDEGWGDSIATMEMILKNAQGESSTRLMRLKSLEVEGDGDKGLTIFDQPRDVTGTAFLNHSHTIGADDQWLYLPALKRVKRISSRNKSGPFMGSEFAYEDLSSFEIEKYRFNHLKDEKFNGQDVFVLEQIPTDKNSGYTKQVVWLDKAHYRPLKVEFYDRKGALLKTLTFANYKQYLDKYWRAHTMAMTNHQTGKSTELNTSDLRFQTGLEENDFNKNVLKRVK”, which “soluble on expression in E. coli” value is on record?
Answer: The value was “not soluble”.

Question: With “MVHDSALPFDALPMPPQGREGFEECPYLDSQWVADTNGQRMTGQGVDTRFDTPACVFWSYPEAPQATVMVRHMPSEEEAIRVVDWAAPIDTTEPAEEPDGWSGGRAGHEEGAVYAVQKGPVAVVVWSNQQQSLKAELMAKEAIARLGL” as the sequence, how does the “soluble on expression in E. coli” value read?
Answer: The value was “soluble”.

Question: Which “soluble on expression in E. coli” value does the source give for “MSYYLVQSTDEDILKHAECGGAVTAFFKYLLDKKLVDGVLALKKGEDVYDGLPYLVNDSKELVETCGSLHCAPTMFGNMISKHLKDMNLAVSVKPCDAMAIVELEKRHQIDKDKLYTIGLNCGGTVPPQTAKKMIELFYDVDPEDVIKEEIDKGKFIIELKDGSEKSVKIDELEEEGYGRRTNCQRCELKVPRNSDLACGNWGTEKGWTFVEVGSEKGEELLKNAQKEGYINVKAPSEKALEIRGKIEKSMINLGKKFQKEQLDEKYPEPEKWDEYWSRCIKCYGCRDVCPICFCKECALGEDYLDKGTIPPDPIMFQGIRLSHMSFSCINCGQCEDVCPVEIPLAKIYHRAQLKIRETTGFVPGIDDSMPFLYKLEHHHHHH” here?
Answer: The value was “not soluble”.

Question: For “MAIKITPDEFSLLIQRLNKKWRVFAPSAEFRGGRFSDTDNIIYQRISGWRDLIWHEKSHMSPNTIIAPITETLFYFDKDTIQIAETDTSPIIIFARACDINAMSRLDYMYLSNGNNSDYSYQLLREHIRFVLIECEESFENCFCVSMGTNKTDCYSAAMRFSDEGALVSIRDPFIEAAIQGLGQEADYTPSFVSENRETVVTPDSVCHDPQKIRDILTHHPLWDAYDSRCISCGRCTTGCPTCTCYSVFDVAYDENPQRGERRRQWASCMVPGFSDMAGGHGFREKPGERLRYRALHKVNDYKARNGIEHMCVGCGRCDDRCPQYIKFSLIINKMTAAVRQALAEEA”, which “soluble on expression in E. coli” value is on record?
Answer: Its value is “not soluble”.

Question: For “MSLSMLEKVSFSTTPDFELGFEHCPRQTDYLIAQPKERAKGLVVYIPGFGDDAGEYREKFCLKVAEKYDLAAMTVDYHCFYSRPEVHSATAYEAEDVALIEKLFLAHNLPFAGDTIEEGIEILNKHLASHNQKASITATLIPGKDEYQNAGVLQALDIINAVGHAIEKYSIPAENVILIGSSYGGYIANLATKFAPKTFRAVFDNSSWAQPHFTYIVGREYGYPELIHKTHSHIATKLFLRTAWTLKKGLPNTFDGKRFYVRTFSEDQLGQFSSYEPETYYYFIHAEKDKLALTEHKIQMATYMIQREMNVHMEVMEAADIDGQYIKTIEHGMNLSMLTFFDKAYAHINDHTISLENDFMNGSLVGYDSGDHRYEFDFSTFPVTGRVTQKAVAEGHHHHHH”, which “soluble on expression in E. coli” value is on record?
Answer: Its value is “soluble”.

Question: For “MRALPIADDVAGVIFALNGGDLGEDTGCVYYFAPDTLNWESLEVGYSEFLQWALSGDLDTFYENVRWQQWREDVIKLSATEAFTFYPFLWVQSEEARTRKVISLTELWEMQYQMKETFTQLEHHHHHH”, which “soluble on expression in E. coli” value is on record?
Answer: Its value is “not soluble”.

Question: For “MGSDKIHHHHHHMTEMNHSVPDDMLMGYASGSLAKAFDLVLATHVSLNDDARARLETFEALGGAILCGMDTVDVDDDSLEQTMAKIRGNAPIERPAPSEGLFPTPLQSMVGGDVDAVRWRSVGGGVKQCVLHSDDGGTVRLLSIAAGRAMPAHSHHGTEMTLVLQGAYRDDDGIFARGDLELADTDTNHQPVAEPGQDCICLVATNAKLKFQGLLPRIAQPFLGI”, which “soluble on expression in E. coli” value is on record?
Answer: Its value is “not soluble”.

Question: Which “soluble on expression in E. coli” value does the source give for “MAHYKAADSKREQFRRYLEKSGVLDTLTKVLVALYEEPEKPNSALDFLKHHLGAATPENPEIELLRLELAEMKEKYEAIVEENKKLKAKLAQYEPPQEEKRAE” here?
Answer: Its value is “soluble”.

Question: With “MAHHHHHHMGRSFKVFLSNYVYRYGAAVWELRVCIERCAFPDYYAASPHDCAASSHYHAAYPPRSCSECGNHLSDPTELVSTSFRGRTGPAWLFSKVINVCEGQYEDRMMTTGQHTIVDIYCNNCRNNVGWKYEDSSEESQKYKKGKYILEKALLSFLVIDQHGKEHEFELKSSDCDF” as the sequence, how does the “soluble on expression in E. coli” value read?
Answer: The value was “not soluble”.

From the DeepSol protein solubility set
